These results are taken from publication doi:10.1101/2021.10.29.466502 (bioRxiv, 2021).

The target in test [1] is thrombopoietin receptor MPL on Ba/F3-HuMpl cells (human) (UniProt P40238).
The target of test [2] is T1, thrombopoietin receptor MPL on Ba/F3-HuMpl cells (human, UniProt P40238 26-635, N-glycans (consensus sites N117, N178, N298, N358)).
T1 sequence: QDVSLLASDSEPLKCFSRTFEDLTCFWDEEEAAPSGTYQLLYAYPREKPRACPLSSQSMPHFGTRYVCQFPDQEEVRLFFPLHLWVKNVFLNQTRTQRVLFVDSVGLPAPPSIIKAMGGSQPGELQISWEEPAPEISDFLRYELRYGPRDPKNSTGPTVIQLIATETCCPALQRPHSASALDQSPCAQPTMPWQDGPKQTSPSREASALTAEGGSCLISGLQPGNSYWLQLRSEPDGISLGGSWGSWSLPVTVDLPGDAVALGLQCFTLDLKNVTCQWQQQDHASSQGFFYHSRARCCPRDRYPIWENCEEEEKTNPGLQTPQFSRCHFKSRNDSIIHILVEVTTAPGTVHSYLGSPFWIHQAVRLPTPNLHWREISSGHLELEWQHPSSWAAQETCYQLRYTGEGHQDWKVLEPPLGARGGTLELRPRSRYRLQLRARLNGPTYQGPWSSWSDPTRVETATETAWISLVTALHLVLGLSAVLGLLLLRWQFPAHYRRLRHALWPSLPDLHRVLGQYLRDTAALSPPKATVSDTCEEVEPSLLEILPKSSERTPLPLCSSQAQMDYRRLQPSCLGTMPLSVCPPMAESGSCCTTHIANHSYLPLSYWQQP
The test can be described thus: cell-based or functional assay.

As for “PA-IIL (from UniProt Q9HYN5 1-115) (natural protein)”, in test [1], the proliferation of Ba/F3-HuMpl cells, EC50 came to 17.5 µg/mL.

B1: N-terminal His-tagged recombinant ThC (rThC) (natural protein)
chain: TACTTGPQTISFPAGLIVSLNASVQSSRNESVEVKDSNGNTVSRGSGSSSSGGTFTVINMEPPTFISDGNDYTVELSPQATPGILQTESSRVDNGRLIWQNYAFGANDGGCIVGDRDFNDVFVLITGLVRG
In the case of B1, the “proliferation of Ba/F3-HuMpl cells, EC50” value in test [2] is 0.26 µg/mL.
